{
  "source": "paper PMC3857803",
  "molecular_target": "anti-METH single chain antibody fragment scFv6H4",
  "assay": "crystal structure; apo scFv6H4, hanging drop; protein 14 mg/ml in 5 mM HEPES, 100 mM NaCl, 1 mM NaN3, pH 8.0; reservoir 1.6 M ammonium sulfate, 240 mM imidazole malate, pH 8.0; space group P2(1)3, one molecule in the asymmetric unit; trimer formed by the crystallographic 3-fold axis, with a Ni2+ ion and a sulfate on the axis",
  "data": [
    {"binder": "anti-METH single chain antibody fragment scFv6H4 (scFv, V domains shown) VH: EVQLQESGPSLVKPSQTLSLTCSVTGDSVTSGYWSWIRQFPGNKLDYMGYISYRGSTYYNPSLKSRISITRDTSKNQVYLQLKSVSSEDTATYYCSYFDSDDYAMEYWGQGTSVTVSG VL: QIVLTQSPAIMSASPGEKVTLTCSASSSVSSSHLYWYQQKPGSSPKLWIYSTSNLASGVPARFSGSGSGTSYSLTISSMEAEDAASYFCHQWSSFPFTFGSGTKLEIK", "values": [
      {"measurement": "stoichiometry N", "value": 3}
    ]}
  ]
}
